# Assay results from the DeepSol protein solubility set.
# Experiment: soluble on expression in E. coli; label from the status in PepcDB or PDB records
row,Sequence,soluble on expression in E. coli
1,MGSDKIHHHHHHMYSFVARQPILNQHRQTVAYELLFRMDITNKFPDVSPEFATAQLISDQFLTNPLARSVVEQPYYINFPHQMLINGQAEVLPQEKVVIEILENAAPDNDLFAAVKKLKRKGFKIALDDFSMDSEWDRFLPYIDVIKFDLTLSTFGDIENFIKRTKQRKLIYLAEKVETHEQYMQSKKLGISLFQGYFFSRPEMIKSKKLVNKSSNTIRLLREVNKPEINYAAIEELVCADLSLYYKLMRHITNIKYNTRFGITATSMSFRSMAMLLGQRELKRFVSLISITNSNENKPSELYRTSLIRARFFELLYASFNVKEDTTEAFLCGLLSLLDAVLDSPMPLLLSQIALSEKINQSLLENTGELAVYLTLIAKYEQQEWEELERLLIQLGIDEENFFTMIMEATQWADEIL,not soluble
2,MISAHVWADAQRLWDFQQMGHEPHPCSVAIGLGSHDLGVAETTAELYHRGMAPVIVFTGATSRTTHERMPRGEAEHYRERAVELGVPERAILVEPNARNTGENIRLSRALLEDLGMPVTSVLLVSKPYEERRAYATARKLWPNVEWVCVSTSMTLPDYVKSIGDARLVIDMLVGAQQRLMVYPRQGFMIKQEIPEPIMTAYEHLRGHGFTSRLVPETAEQTLEHHHHHH,soluble
3,MVTVPEGYEANVIYALGDSINPRVGDWDDNNIPSGPSFQFRSGDCHDGMHYFGLNTSTNRFDETVSAQGLLVMNHEYINQTFLHPKGPTKVDGRRPEDEVIRETNAHGVSVVHIKKDPTTQKVEIVKNSIFNRRITASTVMEFAGAAAGSSLLATRFSPAGRQTRGTHNNCGNGYTPWGTYLTTEENFIGYFQRSGSDEYARTDAEKIALKRYGLGVKKDEPYLYEKDEKGAPKKDKDGKIIYLKDKNGELIPNVDEQGRQIYLGTSSRYGWETAIGQVESQDLYDRWNADVKAAQATQDYRNGPNTFGWMVEIDPFDGRQNPVKRTSLGRFAHEDSACRAVVGQPLAFYMGDDSRGEYIYKFVSTAVWDTKDINGGYTAGDKYMNAGKLYVAKFNNDGSGQWIELAYGKNGLNESNTTYPFKSQADVVTFARLAADSVGATKMDRPEWCTVNPVNGEIYVTLTNNSNRGKDYATDAANPRNYTDLYAGTKEQKGNVNGHIIRFKETDDKTTAETFKWDIYLFGAEASMASNINLSGLTDNNDFSSPDGMWFDPRGVLWIETDDGAYTDVTNCMMLAALPGQIGDGGTLEHHHHHH,soluble
4,MIDLENQEREIINLMFSQRISWLAAVRIRHKLSLAEVSKMLGISINSLKQIEKTERLSSNIKSKMAEIYGCPPELLICPSWMTAEHK,not soluble
5,MEYKSTRHAKYLCNYHFVWIPKYRRKVLTGEVAEYTKEVLRTIAEELGCEVLALEVMPDHIHLFVNCPPRYAPSYLANYFKGKSARLILKKFQELKKSTNGKLWTRSYFVSTSGNVSSETIKKYIEEQWAKENEED,soluble
6,MEIGTVTSQEEKLAYEKSIEMAGNYANQFDAQMEANQAIARTLACTMAEYGSQDREEAMSIIKRILNENPQLIGVYLGYEPDAFDGRDKNYINAPGHDSTGRFVPYCNKINGPVIIEPLVHYDSSDYYQLPKTTGKDTLTEPYFYEGIFMVSYDSPIFKNGEFAGIAGVDVPLEYVDDVASSIRTFDTGYAFMVSNTGIFLSHPTQKNWIGEKSLSDFDVEEIKNAASDIREGIGGHVEIKDPITGKTVIMFYEPVKTGDFSFVLVVPKEEMLAGVKDLRDRLLEHHHHHH,soluble
7,MKRYTPDFPEMMRLCEMNFSQLRRLLPRNDAPGETVSYQVANAQYRLTIVESTRYTTLVTIEQTAPAISYWSLPSMTVRLYHDAMVAEVCSSQQIFRFKARYDYPNKKLHQRDEKHQINQFLADWLRYCLAHGAMAIPVYLEHHHHHH,soluble
8,MSNILFKPTHLPISKPFHALLANILSEHQAKSEVQATSKEVVMNFRDSSYSAEDGGFHPVEIALSQSSDGQWCIEYITDFAYVGNHFPELERCLDFDFQRGDFFTAYHGWNPIVGNRDARELYQLWESNFLAYVATEAFDDISLTSAP,soluble
9,DPAAADRAEELRIQNLLKQLQQAVTNNDLTIYYQPIMSLQQQSLELYQIYIGLHGDEELISSVTLLEIAKKRELIAQIDRWVVARAIAQIGERQRAGHTTHLLVQIDSASFTDPQLLTMLRTELAAHHVRGEQLWLQTPESKVFTHLYNAQQFLSEISVQGCKMGLEQFGTGLDSFQLLTHFKPAFLKLDRNLTQDINSNHDSLEKIREITSRAQDNGIATFAEFVTDSTSMSALFKVGVDYVQGDFVAPI,not soluble
10,MSGDIPLHQLQPNMNSFSVTVIVLDPGIHRRTQTGTIISMKVADASGSINASIMNPEFNETFKPGDILKFRGAYTSIYQGGLTLSVGKSGECKKVGEFMMVFSETPDISMMPLPAGVMDRRNERMQSPAGRYSRPSN,not soluble
11,MCGIFAYLNFLAPKKRSEIVDILVQGLQRMEYRGYDSAGIAIDGSNDIENPHSKIALLRKRGKVSVLNDYIKENNEKLNMDMEYNIHCGIAHTRWATHGSPRDVNSHPHRSNDNNEFLVVHNGIITNYREIKEYLEKKGHKFESETDTEVIAKLTQHVHDRYPDFSFRQLVETVIQQLEGAFALAFKSSRFPGQLVASRRGSPLLVGIKSNSTLHTSHFPVSYSKGRCFMSNNATHLREETSFVETPNNILDLSIAVRNPSGSAKLPDNNSTTRPFDSTDFEVEYFIASDAAAIIEHTKQVLFLEDDDVAFVEDGSLTIHRISRHADSGEQKREVQLLELEIQEIMKGSYKTFMQKEIFEQPESVVNTMRGRVLPSGQVVLGGLKEYLPAIKRCRRLIMVACGTSYHSAIACRQVLEELSELPVVVELASDFLDRETPIFRNDVCLFISQSGETADTLMALRYCKPRGALTIGVTNTVGSSIGRESHCGIHINAGPEIGVASTKAYTSQIVSLLLFALTISEDRISKMKRRAEIIDALNNLPILIRDVLDLDDQVLKIAEQIYKDKSLLIMGRGLNFATCLEGALKIKELSYMHCEGIMSGELKHGPLAMVDEFLSICMVVCNDHVYKKSLNALQQVVARKGAPIIIADSSVPESDLAGMKHVLRVPRTVDCVQNILTVIPLQLLSYHIAELNGANVDRPRNLAKSVTVE,not soluble
12,MDAQLEWASSLVPKRQLQQQQQQQEQQQQQQQDFHKDQLMTVGMRIRQRVDQGYASRTPSTSDASLQPGVIRDYSSVIVPQFTRSPLPTANSLPPMLINQRTMSTEASSLEKWDVAEPAAEHETMVNGSKRRL,soluble
13,MAHHHHHHMKNVKVELDGKVYTILYEPKKVKFSDLDPLKIMFHSNHVKHSGNSVIRYLVKLTSRDISKMDYVVRHVDISYDRPLKYEDSYKIIGGITSYGSTSLRITLFGTNSSSKNGCSSNLGVKNILRNGACAHVDEAAKPEEGHEKASSSGEFKSEHSEVATRRDPNKKATKSDHHVEKLLAKYKEDNADAVIKLCRNKMNEIASQKHCINYFTAHYTLVRVNKEGAKEPIQEKYKNEFPPIEVEKLKELVSVFC,not soluble
14,MSEVKKTKVHLISGFLGTGKTTALKSLMAQKDPNEKWVIIVNEFGEIGIDGAVLSDNGIPVAEIAGGCLCCTAGPQMGVTVQKMLRDAKPDRLMIEASGLAHAASVIDELKAKPLDSLLEIGAVFTVVDPRQFINPDYAQQALYKDQIGICDVLAASKTDLCTPEQLAEFHDKAAKLFPPKAKVVEVQNAQLDIQWLDIPVVEKSRYRLKALPDNTMGFQSQGFTFPAGRDFNGEKLTNFFNDLPKMTEGLVRAKGVFQVLGTWVWLNWVDGQWGANQVSWRRDSRFELIAKSFDADLIEQKLKDALELEHHHHHH,soluble
15,MQGKIIKSLAGFYYVESEGQVYQTRARGNFRKRGETPYVGDIVDFSAEDNSEGYILAIHPRKNSLVRPPIVNIDQAVVIMSAKEPEFNSNLLDRFLILLEHKAIHPVVYISKMDLLDSPEEIKAIGRQYQAIGYDFVTSLEELLPLLADKITVFMGQTGVGKSTLLNRIAPELALEIGEISDSLGRGRHTTRAVSFYNTHGGKIADTPGFSSLDYDIANAEDLNEAFPELRRLSHECKFRSCTHTHEPKCAVKAALETGELWPVRYEHYLQFLSEIENRRETYKKVIKRK,not soluble
16,MRKLVVGITIASLMGCSMGHRDPVEVKQALNESINQANSRALEEIPSSVEADLMPNLDSNVSSDNGTSKRFRIQANAVEARSFFASLVKGTEYSVAIHPAVQGNITVNLSDVTLDEVLSVVQNMYGYDVMKSGKVIQVYPAGMRTVTIPVDYLQFKRSGRSLTSIVTGSVTSAGTSNSGGSSDSSDSSDSNNSNNGNDSSTTSTGGTRIETITESDFWPMLQQAVANLIGSGKGQSVVVTPQAGVITVRAFPDDIREVREFLGVSQERMQRQVILEAKILEVTLSDGYQQGINWSNLSASIGNSGSIIVNRPASALPPLDAIGTLLGGQTNVTISDGNFEAVLNFMSTQGDLNVLSSPRITAANNQKSVIKVGTDQYFVTELSSNAGNGENSNAVPEVELTPFFSGISLDVTPQIDNKGNVFLHVHPAVIEVTEEVKQLNLGGDFQNIQLPLAKSSIRESDSVIRAKDGDVVVIGGLMKQQNVEQVSKVPFLGDVPALGHLFRNTSNVTQKTELVILLKPTVVGVNSWQKELERSRDLLQEWFPDAQLEHHHHHH,not soluble
17,MSLQTKILIIDGDKDNCQKLKGFLEEKGISIDLAYNCEEAIGKIFSNKYDLIFLEIILSDGDGWTLCKKIRNVTTCPIVYMTYINEDQSILNALNSGGDDYLIKPLNLEILYAKVKAILRRMNSYVNNNENNTKLEEYNRTSGVIKLEDKIIKLTPTENKLLNFFIENPEKTLTTKEIYEHVWMNEYLEDNYSVVVAVNGLRKKIEKDYKNPQKIITIRGAGYYFNKEGHHHHHH,soluble
18,MGSDKIHHHHHHMPIKVNMFSSASKVKGQGVGSAYEELIRLLKTHFPKQIDVSINKFTKADISHYHTIDPNFYLSTFSKKRGIKVGYVHFLPETIEGSLNIPQPFRSIFYKYIISFYKRMDHIVVVNPTFIDKLVAYGISRDIITYIPNFVRKNEFYRFTEANRDAVRERLEVNNRFTVLGIGQVQERKGVKDFIKLAENNPDKYFIWAGGFSFGRLTDGYADLKQVVDNPPRNLKFTGIVDRNALVEYYNAADLFLLPSYNELFPMSVLEAFSCGVPVMLRDLELYHSIIKGYYIPTQDYEDMNTQLKLVSEDKERLNKFKQLSDEASEEYSEDHLADIWLDFYSSLTK,not soluble
19,MGSDKIHHHHHHACNTSPREPKAMEANDGSVTTVESNGNKLTVCDLSAVKDTIEVPLSEFVEDCRIVRFETSEEAYFKAWFINATDKHIGIRQGNQDVFKLFDRDGKFLYNVGSVGSGPGEYDTTLYDECIDEKNGHIFFTPFVGKRIMMYDINGQWIKDIPLPMQINKAKIWVNEDGSLSVVHMPFEEGEPLAFRVDTEGNILNQIPATAATKVMNFDGEVFSYRNCGDFDFFHTGIDTLFTYDPAGNKLLPKFTMTFPNMNEKPIHLYYRLPHHFIVTYWGNKGEGGGDVLVDTEKNASSYFRLVNDFYGNLPIPAPGHSFYRGYFIQSLEPGQLIEKIEKQIASGKCSGQDEQKLKELAATLTENDNNVLFIGKVKK,not soluble
20,MHYSSGNYEAFVRPRKSESADKKTAWLVGSGLAGLAGAAFLIRDGGVAGERITILEELDVPGGALDGLDVPEKGFVIRGGREMEEHFECLWDLYRSIPSLEVEDASVLDEFYRLNKDDPNFSLQRATQNQGQDAPDKALLTLNDRAQKDLLSVFLATREEMENKRINEVFSEDFLKSNFWLYWRTMFAFEEWHSALEMKLYLHRFIHHIGNLADFSSLKFNRYNQYESMVLPLVKWLQDHGVRFRYGIEVTDVDFDIHAEGKQATRIHWTEKGVEGGVDLGPDDLVLITIGSLTENSDNGDHHTPAKLREGPAPAWDLWRRIAAKDPAFGRPDVFGAHVTETKWASATITALDQRIPQYVEKIAKRNPFTGKIVTGGIVTVKDSSWLMSWAVHRQPHFKKQPKDQMIAWLYALFVDRPGDYVKKPMLDCTGEEITQEWLYHLGVPVEDIPELAAAGANTVPVMMPYITAFFMPRQAGDRPDVVPEGAVNFAFIGQFAESKQRDCIFTTEYSVRTPMEAVYTLMNVERGVPEVFNSTYDIRTLLAAIGPLRDGKGIDLPGPSFLHKLLMKKLEGTEIAELLKEFHLISELEHHHHHH,not soluble
